Several values for one entry are separate records, joined by “and”; a condition that tells them apart may be missing. Identical values can stand only once.
Molecular target: the molecule itself
Test: cryo-EM structure

B1: human IMPDH2 S160del (hIMPDH2-S160del) (enzyme)
chain: not shown
**Q.** B1 was tested. Which “stoichiometry N” value did it give?
**A.** 4 and 8
